The results in this text go back to patent publication US20100196393A1 (ST LOUIS UNIVERSITY, published 2010).

No end group written: not given here.

In experiment [1] the target is low density lipoprotein receptor-related protein-1 (LRP-1), mouse (mouse) (UniProt Q91ZX7). Kind of experiment: cell-based or functional assay.
Experiment [2] concerns the target beta-F1 ATPase (ATP synthase beta subunit), mouse, on brain microvessels (mouse, UniProt P56480 47-529). Kind of experiment: cell-based or functional assay.

Chain of low density lipoprotein receptor-related protein-1 (LRP-1), mouse (mouse) (Q91ZX7 20-4545): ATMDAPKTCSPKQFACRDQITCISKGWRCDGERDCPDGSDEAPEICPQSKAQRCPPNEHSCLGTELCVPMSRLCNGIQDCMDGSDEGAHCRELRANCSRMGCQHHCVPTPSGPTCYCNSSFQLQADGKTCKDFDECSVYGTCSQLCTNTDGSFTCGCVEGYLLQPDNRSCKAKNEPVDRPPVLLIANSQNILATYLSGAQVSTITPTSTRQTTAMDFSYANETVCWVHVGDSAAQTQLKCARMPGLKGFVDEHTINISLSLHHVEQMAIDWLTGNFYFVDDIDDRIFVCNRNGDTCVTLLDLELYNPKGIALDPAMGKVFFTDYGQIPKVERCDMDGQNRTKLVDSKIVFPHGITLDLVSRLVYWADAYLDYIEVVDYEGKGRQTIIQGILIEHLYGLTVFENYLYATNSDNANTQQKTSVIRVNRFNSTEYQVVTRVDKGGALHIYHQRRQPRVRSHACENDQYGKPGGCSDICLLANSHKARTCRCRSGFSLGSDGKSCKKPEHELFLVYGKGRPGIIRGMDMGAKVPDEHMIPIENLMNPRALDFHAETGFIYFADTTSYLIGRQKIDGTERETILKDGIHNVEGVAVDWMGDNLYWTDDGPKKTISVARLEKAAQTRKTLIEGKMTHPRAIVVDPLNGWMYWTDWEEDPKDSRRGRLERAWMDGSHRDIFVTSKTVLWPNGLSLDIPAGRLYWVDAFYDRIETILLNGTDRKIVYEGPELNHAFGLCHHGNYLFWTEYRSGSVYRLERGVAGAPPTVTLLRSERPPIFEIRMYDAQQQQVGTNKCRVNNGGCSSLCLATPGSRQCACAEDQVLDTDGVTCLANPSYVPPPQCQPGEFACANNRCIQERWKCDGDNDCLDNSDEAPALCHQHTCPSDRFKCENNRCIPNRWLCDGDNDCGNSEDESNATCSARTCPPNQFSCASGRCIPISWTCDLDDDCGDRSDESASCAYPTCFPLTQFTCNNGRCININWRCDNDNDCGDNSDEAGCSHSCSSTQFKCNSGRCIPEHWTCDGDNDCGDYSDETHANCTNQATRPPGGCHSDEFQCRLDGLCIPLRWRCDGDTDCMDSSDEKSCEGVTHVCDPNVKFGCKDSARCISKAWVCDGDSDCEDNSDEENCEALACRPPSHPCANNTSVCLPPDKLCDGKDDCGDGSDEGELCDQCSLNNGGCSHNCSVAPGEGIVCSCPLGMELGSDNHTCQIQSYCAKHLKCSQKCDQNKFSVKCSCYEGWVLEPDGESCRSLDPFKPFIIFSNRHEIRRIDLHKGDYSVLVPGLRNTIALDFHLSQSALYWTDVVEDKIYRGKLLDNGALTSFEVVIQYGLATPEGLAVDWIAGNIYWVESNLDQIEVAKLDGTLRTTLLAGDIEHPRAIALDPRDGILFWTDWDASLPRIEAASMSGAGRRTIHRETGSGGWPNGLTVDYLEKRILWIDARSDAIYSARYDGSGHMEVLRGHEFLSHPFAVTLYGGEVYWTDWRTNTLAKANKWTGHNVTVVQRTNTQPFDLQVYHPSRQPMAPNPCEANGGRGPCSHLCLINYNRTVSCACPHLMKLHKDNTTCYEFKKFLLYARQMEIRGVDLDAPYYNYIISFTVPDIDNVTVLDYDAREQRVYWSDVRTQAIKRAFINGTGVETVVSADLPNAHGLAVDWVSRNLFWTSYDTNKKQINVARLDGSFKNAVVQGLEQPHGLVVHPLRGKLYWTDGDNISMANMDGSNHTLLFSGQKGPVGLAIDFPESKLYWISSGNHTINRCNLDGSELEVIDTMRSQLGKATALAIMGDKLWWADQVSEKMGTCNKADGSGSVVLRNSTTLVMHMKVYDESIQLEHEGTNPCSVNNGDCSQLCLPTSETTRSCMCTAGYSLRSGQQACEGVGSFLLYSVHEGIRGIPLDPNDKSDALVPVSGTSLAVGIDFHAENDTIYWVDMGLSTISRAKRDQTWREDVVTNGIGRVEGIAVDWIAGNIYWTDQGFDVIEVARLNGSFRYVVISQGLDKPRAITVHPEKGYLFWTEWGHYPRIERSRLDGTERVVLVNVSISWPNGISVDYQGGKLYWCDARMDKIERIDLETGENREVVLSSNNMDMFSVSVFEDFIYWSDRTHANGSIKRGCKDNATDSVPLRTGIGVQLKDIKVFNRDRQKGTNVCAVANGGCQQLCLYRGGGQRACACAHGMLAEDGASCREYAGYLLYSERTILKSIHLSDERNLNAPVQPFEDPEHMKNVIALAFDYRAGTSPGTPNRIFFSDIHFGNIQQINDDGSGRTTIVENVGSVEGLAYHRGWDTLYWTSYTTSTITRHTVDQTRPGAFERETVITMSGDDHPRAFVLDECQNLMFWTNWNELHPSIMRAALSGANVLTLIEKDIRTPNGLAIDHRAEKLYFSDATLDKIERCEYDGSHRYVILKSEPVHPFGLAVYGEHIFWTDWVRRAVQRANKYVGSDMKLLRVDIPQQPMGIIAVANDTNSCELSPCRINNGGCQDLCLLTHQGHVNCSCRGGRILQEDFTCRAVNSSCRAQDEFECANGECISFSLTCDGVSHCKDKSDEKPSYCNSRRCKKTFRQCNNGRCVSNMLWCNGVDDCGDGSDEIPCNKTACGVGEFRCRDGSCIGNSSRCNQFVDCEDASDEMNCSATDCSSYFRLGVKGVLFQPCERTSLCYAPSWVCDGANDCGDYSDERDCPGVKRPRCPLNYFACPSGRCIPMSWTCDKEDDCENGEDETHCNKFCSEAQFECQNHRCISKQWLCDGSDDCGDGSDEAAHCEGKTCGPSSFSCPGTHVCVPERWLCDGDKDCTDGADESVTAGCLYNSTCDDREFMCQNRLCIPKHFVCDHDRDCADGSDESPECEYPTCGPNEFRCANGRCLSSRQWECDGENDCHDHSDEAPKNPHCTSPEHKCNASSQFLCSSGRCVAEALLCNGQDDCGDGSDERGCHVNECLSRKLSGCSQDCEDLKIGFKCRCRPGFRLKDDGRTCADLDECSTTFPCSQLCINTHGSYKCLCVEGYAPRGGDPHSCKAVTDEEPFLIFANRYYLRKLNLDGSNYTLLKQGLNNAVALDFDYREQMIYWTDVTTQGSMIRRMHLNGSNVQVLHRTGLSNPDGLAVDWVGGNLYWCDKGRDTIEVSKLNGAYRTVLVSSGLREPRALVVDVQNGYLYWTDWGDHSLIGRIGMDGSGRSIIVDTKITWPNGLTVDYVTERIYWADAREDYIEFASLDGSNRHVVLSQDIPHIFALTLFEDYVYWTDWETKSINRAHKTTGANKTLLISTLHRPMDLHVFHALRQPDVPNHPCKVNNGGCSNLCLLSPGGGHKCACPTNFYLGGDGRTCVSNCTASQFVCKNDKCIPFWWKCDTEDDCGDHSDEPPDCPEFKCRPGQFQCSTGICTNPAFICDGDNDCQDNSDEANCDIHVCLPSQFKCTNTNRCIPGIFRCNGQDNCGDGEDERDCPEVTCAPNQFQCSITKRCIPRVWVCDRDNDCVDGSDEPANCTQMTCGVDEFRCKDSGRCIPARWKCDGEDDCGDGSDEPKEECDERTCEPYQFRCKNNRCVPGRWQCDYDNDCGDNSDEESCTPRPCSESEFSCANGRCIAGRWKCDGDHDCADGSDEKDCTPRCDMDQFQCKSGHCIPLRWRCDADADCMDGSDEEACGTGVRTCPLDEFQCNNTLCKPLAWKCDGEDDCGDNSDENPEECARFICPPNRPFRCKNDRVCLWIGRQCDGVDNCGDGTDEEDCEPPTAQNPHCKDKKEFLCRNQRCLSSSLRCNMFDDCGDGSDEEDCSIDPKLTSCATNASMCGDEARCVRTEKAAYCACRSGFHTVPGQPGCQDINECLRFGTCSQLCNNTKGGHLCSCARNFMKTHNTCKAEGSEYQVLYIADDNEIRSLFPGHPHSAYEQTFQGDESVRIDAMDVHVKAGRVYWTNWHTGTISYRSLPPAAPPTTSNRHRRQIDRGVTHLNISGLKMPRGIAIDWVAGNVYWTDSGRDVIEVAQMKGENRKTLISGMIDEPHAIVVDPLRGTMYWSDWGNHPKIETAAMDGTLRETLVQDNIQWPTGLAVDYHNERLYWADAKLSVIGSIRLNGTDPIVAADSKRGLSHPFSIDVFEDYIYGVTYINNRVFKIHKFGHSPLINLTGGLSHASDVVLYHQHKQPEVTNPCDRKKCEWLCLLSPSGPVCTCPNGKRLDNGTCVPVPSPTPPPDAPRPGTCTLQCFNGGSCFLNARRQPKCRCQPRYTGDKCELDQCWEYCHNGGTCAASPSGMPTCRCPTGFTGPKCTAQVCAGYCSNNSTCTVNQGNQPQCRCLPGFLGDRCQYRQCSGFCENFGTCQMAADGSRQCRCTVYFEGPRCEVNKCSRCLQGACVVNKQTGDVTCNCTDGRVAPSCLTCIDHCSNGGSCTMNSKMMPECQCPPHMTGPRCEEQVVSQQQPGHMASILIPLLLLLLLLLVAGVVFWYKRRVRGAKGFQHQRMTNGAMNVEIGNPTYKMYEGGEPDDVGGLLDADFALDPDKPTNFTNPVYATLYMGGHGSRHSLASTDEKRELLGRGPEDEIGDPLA
Chain of beta-F1 ATPase (ATP synthase beta subunit), mouse, on brain microvessels (P56480 47-529): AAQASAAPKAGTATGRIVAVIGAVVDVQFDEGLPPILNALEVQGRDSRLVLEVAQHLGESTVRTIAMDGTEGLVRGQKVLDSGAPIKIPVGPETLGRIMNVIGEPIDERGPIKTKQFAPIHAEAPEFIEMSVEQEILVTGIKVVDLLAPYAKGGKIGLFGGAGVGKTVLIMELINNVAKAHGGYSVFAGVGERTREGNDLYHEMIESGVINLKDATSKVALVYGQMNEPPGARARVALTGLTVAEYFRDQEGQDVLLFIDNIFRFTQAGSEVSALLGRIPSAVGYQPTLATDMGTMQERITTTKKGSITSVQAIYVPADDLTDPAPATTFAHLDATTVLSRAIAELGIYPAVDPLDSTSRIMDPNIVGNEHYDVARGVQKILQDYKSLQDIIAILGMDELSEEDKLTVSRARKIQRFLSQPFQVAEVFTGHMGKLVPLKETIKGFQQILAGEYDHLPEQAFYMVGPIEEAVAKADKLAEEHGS

On to “42 amino acid murine amyloid beta (Aβ42) (from UniProt P12023 672-713) (peptide)”, for which, in experiment [1], the brain efflux of icv I-Aβ42 after two iv injections of anti-LRP-1 antisense cocktail, relative to saline treated mice is 0.87%.
Turning to HSDGIFTDSYSRYRKQMAVKKYLAAVL (peptide, UniProt P18509 132-158, looked up, ends and bridges not checked; also: 131I radioiodinated, residue not given here) [PACAP27 (pituitary adenylate cyclase-activating polypeptide, 27 amino acid form)], the “uptake of I-PACAP27 delivered by brain perfusion, 24 h after iv antisense cocktail against beta-F1 ATPase” value in experiment [2] was determined as 4 fold.
